Source: article PMC8262878, “GP96 Drives Exacerbation of Secondary Bacterial Pneumonia following Influenza A Virus Infection” (mBio, 2021)

Target: T1, recombinant glycoprotein 96 (GP96) (human, UniProt P14625 22-803)
T1 construct: The purification of GP96 and the fate of the GST tag are not described; also called GRP94; Grp94; source: E. coli BL21(DE3), pGEX-6P-1 vector; recombinant protein
Experiment: SPR; BIAcore X-100; GP96 amine-coupled to a CM5 chip; AliA or AliB as analyte at 31.3-500 nM; HBS-P buffer (0.01 M HEPES pH 7.4, 0.15 M NaCl, 0.005% surfactant P20), 37°C, 30 ul/min; 1:1 Langmuir binding model
Settings: both partners purified

T1 sequence (P14625 22-803): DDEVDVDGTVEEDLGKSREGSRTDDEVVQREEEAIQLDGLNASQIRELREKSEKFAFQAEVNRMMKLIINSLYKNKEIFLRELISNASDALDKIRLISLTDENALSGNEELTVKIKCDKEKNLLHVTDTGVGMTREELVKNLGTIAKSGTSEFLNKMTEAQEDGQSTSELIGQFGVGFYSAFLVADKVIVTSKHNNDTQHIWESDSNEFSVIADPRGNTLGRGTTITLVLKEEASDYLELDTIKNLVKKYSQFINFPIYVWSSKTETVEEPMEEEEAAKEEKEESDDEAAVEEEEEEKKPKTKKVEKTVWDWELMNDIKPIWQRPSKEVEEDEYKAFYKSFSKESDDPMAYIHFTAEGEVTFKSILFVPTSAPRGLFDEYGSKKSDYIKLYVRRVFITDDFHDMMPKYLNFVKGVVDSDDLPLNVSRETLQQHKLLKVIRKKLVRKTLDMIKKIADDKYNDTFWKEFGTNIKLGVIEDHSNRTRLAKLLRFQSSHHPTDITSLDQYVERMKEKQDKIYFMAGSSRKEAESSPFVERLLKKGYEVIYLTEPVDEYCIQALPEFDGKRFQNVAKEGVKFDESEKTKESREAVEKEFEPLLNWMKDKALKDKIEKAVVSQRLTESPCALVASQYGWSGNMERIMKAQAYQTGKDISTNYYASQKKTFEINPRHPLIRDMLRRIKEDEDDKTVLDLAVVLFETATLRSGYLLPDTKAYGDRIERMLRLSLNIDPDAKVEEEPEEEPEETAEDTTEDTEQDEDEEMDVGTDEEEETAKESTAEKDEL

B1: recombinant AliA (natural protein)
chain: CSGSGSSTKGEKTFSYIYETDPDNLNYLTTAKAATANITSNVVDGLLENDRYGNFVPSMAEDWSVSKDGLTYTYTIRKDAKWYTSEGEEYAAVKAQDFVTGLKYAADKKSDALYLVQESIKGLDAYVKGEIKDFSQVGIKALDEQTVQYTLNKPESFWNSKTTMGVLAPVNEEFLNSKGDDFAKATDPSSLLYNGPYLLKSIVTKSSVEFAKNPNYWDKDNVHVDKVKLSFWDGQDTSKPAENFKDGSLTAARLYPTSASFAELEKSMKDNIVYTQQDSITYLVGTNIDRQSYKYTSKTSDEQKASTKKALLNKDFRQAIAFGFDRTAYASQLNGQTGASKILRNLFVPPTFVQADGKNFGDMVKEKLVTYGDEWKDVNLADSQDGLYNPEKAKAEFAKAKSALQAEGVQFPIHLDMPVDQTATTKVQRVQSMKQSLEATLGADNVIIDIQQLQKDEVNNITYFAENAAGEDWDLSDNVGWGPDFADPSTYLDIIKPSVGESTKTYLGFDSGEDNVAAKKVGLYDYEKLVTEAGDETTDVAKRYDKYAAAQAWLTDSALIIPTTSRTGRPILSKMVPFTIPFALSGNKGTSEPVLYKYLELQDKAVTVDEYQKAQEKWMKEKEESNKKAQEDLAKHVK
notes: also called Ali protein; source: E. coli XL10-Gold, pQE30 vector, purified (QIAexpress protein purification system)
For B1, which Kd is on record?
The Kd was 34 nM.

And the koff?
The koff was 0.000785 s⁻¹.

And the kon?
The kon was 23100 M⁻¹ s⁻¹.

B2: recombinant AliB (natural protein)
chain: CGNSSTASKTYNYVYSSDPSSLNYLAENRAATSDIVANLVDGLLENDQYGNIIPSLAEDWTVSQDGLTYTYKLRKDAKWFTSEGEEYAPVTAQDFVTGLQYAADKKSEALYLVQDSVAGLDDYITGKTSDFSTVGVKALDDQTVQYTLVKPELYWNSKTLATILFPVNADFLKSKGDDFGKADPSSILYNGPFLMKALVSKSAIEYKKNPNYWDAKNVFVDDVKLTYYDGSDQESLERNFTAGAYTTARLFPNSSSYEGIKEKYKNNIIYSMQNSTSYFFNFNLDRKSYNYTSKTSDIEKKSTQEAVLNKNFRQAINFAFDRTSYGAQSEGKEGATKILRNLVVPPNFVSIKGKDFGEVVASKMVNYGKEWQGINFADGQDPYYNPEKAKAKFAEAKKELEAKGVQFPIHLDKTVEVTDKVGIQGVSSIKQSIESVLGSDNVVIDIQQLTSDEFDSSGYFAQTAAQKDYDLYHGGWGPDYQDPSTYLDIFNTNSGGFLQNLGLEPGEANDKAKAVGLDVYTQMLEEANKEQDPAKRYEKYADIQAWLIDSSLVLPSVSRGGTPSLRRTVPFAAAYGLTGTKGVESYKYLKVQDKIVTTDEYAKAREKWLKEKEESNKKAQEELAKHVK
notes: as for B1
Which results are given for B2?
Kd: 48.5 nM; koff: 10.1 s⁻¹; kon: 2.09e+08 M⁻¹ s⁻¹
